From US20190119378A1

Experiments:
[1] = biological target: sRAGE antigen (biotin-labeled); experiment: ELISA: antibody coated on plate, serial dilution of biotinylated sRAGE, HRP-streptavidin detection, Prism non-linear fit
[2] = biological target: sRAGE antigen (biotin-labeled); experiment: ELISA with biotinylated sRAGE
[3] = biological target: sRAGE antigen (biotin-labeled); experiment: ELISA: antibody coated on plate, serial dilution of biotinylated sRAGE, HRP-streptavidin detection, Prism non-linear fit; remark: listed apart in the source

Binder | Kd [1] [nM] | Kd [2] [nM] | Kd [3] [nM]
original murine anti-RAGE monoclonal antibody (IgG2a isotype with a Kappa light chain) (antibody, V domains shown) VH: DVQLQESGPGLVKPSQSLSLNCSVTGSSITSGYYWNWIRQFPGNKLEWMGDISYDGSNNYNPSLKNRISITRDTSKNQVFMKLNSVTTEDTAIYKCVREDRSGYPPFANWGQGTLVTVSA VL: DVQMTQTTSSLSASLGDRVTINCRASQDISNYLNWYQQKPDGTVKLLIYYTSRLHSGVPSRFSGSGSGTDYSLTISNLEQEDIATYFCQQGNTLPWTFGGGTKLEIK | 58 | 62.6 | 88.4
mouse-human chimera anti-RAGE antibody (antibody, human IgG1, kappa, V domains shown) VH: DVQLQESGPGLVKPSQSLSLNCSVTGSSITSGYYWNWIRQFPGNKLEWMGDISYDGSNNYNPSLKNRISITRDTSKNQVFMKLNSVTTEDTAIYKCVREDRSGYPPFANWGQGTLVTVSS VL: DIQMTQTTSSLSASLGDRVTINCRASQDISNYLNWYQQKPDGTVKLLIYYTSRLHSGVPSRFSGSGSGTDYSLTISNLEQEDIATYFCQQGNTLPWTFGQGTKVEIKR | 40 | 104 | 38.7
humanized anti-RAGE antibody, full-length IgG1 (antibody, V domains shown) VH: QVQLQESGPGLVKPSQTLSLTCAVYGGSITSGYYWNWIRQPPGKGLEWIGDISYDGSNNYNPSLKSRVTISRDTSKNQFSLKLSSVTAADTAVYYCVREDRSGYPPFANWGQGTLVTVSS VL: DIQMTQSPSSLSASVGDRVTITCQASQDISNYLNWYQQKPGKAPKLLIYYTSRLHSGVPSRFSGSGSGTDFTFTISSLQPEDIATYYCQQGNTLPWTFGQGTKV | – | 133 | 42.1
